Consider 56 variants from the RNAGym collection of RNA variant scans (doi:10.7554/elife.90254).

First the molecules themselves.
B1: LINE1-mini (parent)
chain: GGCAGAGCUCAACACAGCGUGGCAAAGUGGCUGUGGCUAGACUGCC

The variants in the data set derive from B1. Nature of the data set: self-cleavage, relative activity (ratio to wild type); higher = more cleavage; in vitro, sequencing; the parent is a self-cleaving ribozyme.
Regarding GGCAGACCUCAACACAGCGUGGCAAGGUGGCUGUGGCUAGACUGCC [G7C A26G], the self-cleavage was 0.11.
For GGCAGACCUCAACACAGCGUGGCAAUGUGGCUGUGGCUAGACUGCC [G7C A26U], the self-cleavage was 0.15.
The figure for GGCAGACCUCAACACAGCGUGGCAACGUGGCUGUGGCUAGACUGCC [G7C A26C] is 0.6; for GGCAGAACUCAACACAGCGUGGCAAAGUGGCUGUGGCUAGACUGAC [G7A C45A] it is 0.19.
The same measure for GGCAGAACUCAACACAGCGUGGCAAAGUGGCUGUGGCUAGACUGUC [G7A C45U]: 0.21.
As to GGCAGAACUCAACACAGCGUGGCAAAGUGGCUGUGGCUAGACUGGC [G7A C45G], the self-cleavage amounted to 0.29.
The same measure for GGCAGAACUCAACACAGUGUGGCAAAGUGGCUGUGGCUAGACUGCC [G7A C18U]: 0.12.
The same measure for GGCAGAACUCAACACAGGGUGGCAAAGUGGCUGUGGCUAGACUGCC [G7A C18G]: 0.19.
The same measure for GGCAGAACUCAACACAGAGUGGCAAAGUGGCUGUGGCUAGACUGCC [G7A C18A]: 0.07.
As for GGCAGAACUCAACAGAGCGUGGCAAAGUGGCUGUGGCUAGACUGCC [G7A C15G], the self-cleavage came to 0.12.
For GGCAGAACUCAACAAAGCGUGGCAAAGUGGCUGUGGCUAGACUGCC [G7A C15A], the self-cleavage was found to be 0.19.
The same measure for GGCAGAACUCAACAUAGCGUGGCAAAGUGGCUGUGGCUAGACUGCC [G7A C15U]: 0.24; for GGCAGAACUCAACACAGCGUGGCAAAGUGGCUGUUGCUAGACUGCC [G7A G35U]: 0.11.
For GGCAGAACUCAACACAGCGUGGCAAAGUGGCUGUAGCUAGACUGCC [G7A G35A], the self-cleavage came to 0.3.
The same measure for GGCAGAACUCAACACAGCGUGGCAAAGUGGCUGUCGCUAGACUGCC [G7A G35C]: 0.13; for GGCAGACCUCAACUCAGCGUGGCAAAGUGGCUGUGGCUAGACUGCC [G7C A14U]: 0.15.
On to GGCAGACCUCAACGCAGCGUGGCAAAGUGGCUGUGGCUAGACUGCC [G7C A14G], for which the self-cleavage turned out to be 0.08.
The figure for GGCAGACCUCAACCCAGCGUGGCAAAGUGGCUGUGGCUAGACUGCC [G7C A14C] is 0.23; for GGCAGACCUCAACACAGCGUGGCAAAGUGGCUGUGGCUGGACUGCC [G7C A39G] it is 0.08; for GGCAGACCUCAACACAGCGUGGCAAAGUGGCUGUGGCUUGACUGCC [G7C A39U] it is 0.15.
The figure for GGCAGACCUCAACACAGCGUGGCAAAGUGGCUGUGGCUCGACUGCC [G7C A39C] is 0.21; for GGCAGAACUCAACACAGCGUGGCAAAGUGGGUGUGGCUAGACUGCC [G7A C31G] it is 0.08.
The same measure for GGCAGAACUCAACACAGCGUGGCAAAGUGGUUGUGGCUAGACUGCC [G7A C31U]: 0.08; for GGCAGAACUCAACACAGCGUGGCAAAGUGGAUGUGGCUAGACUGCC [G7A C31A]: 0.21.
As to GGCAGAACUCAACACAGCGUGGCAAAGUCGCUGUGGCUAGACUGCC [G7A G29C], the self-cleavage was determined as 0.07.
The figure for GGCAGAACUCAACACAGCGUGGCAAAGUUGCUGUGGCUAGACUGCC [G7A G29U] is 0.2.
The same measure for GGCAGAACUCAACACAGCGUGGCAAAGUAGCUGUGGCUAGACUGCC [G7A G29A]: 0.09; for GGCAGAACUCAACACAGCGUGGCAAAGUGACUGUGGCUAGACUGCC [G7A G30A]: 0.24; for GGCAGAACUCAACACAGCGUGGCAAAGUGUCUGUGGCUAGACUGCC [G7A G30U]: 0.24.
With GGCAGAACUCAACACAGCGUGGCAAAGUGCCUGUGGCUAGACUGCC [G7A G30C], the self-cleavage is 0.42.
The figure for GGCAGACCUCCACACAGCGUGGCAAAGUGGCUGUGGCUAGACUGCC [G7C A11C] is 0.04; for GGCAGACCUCGACACAGCGUGGCAAAGUGGCUGUGGCUAGACUGCC [G7C A11G] it is 0.03.
The same measure for GGCAGACCUCUACACAGCGUGGCAAAGUGGCUGUGGCUAGACUGCC [G7C A11U]: 0.04; for GGCAGAACUCAACACAGCGGGGCAAAGUGGCUGUGGCUAGACUGCC [G7A U20G]: 0.06.
For GGCAGAACUCAACACAGCGCGGCAAAGUGGCUGUGGCUAGACUGCC [G7A U20C], the self-cleavage amounted to 0.07.
The figure for GGCAGAACUCAACACAGCGAGGCAAAGUGGCUGUGGCUAGACUGCC [G7A U20A] is 0.12; for GGCAGACCUCAACACAGCGUGGCAGAGUGGCUGUGGCUAGACUGCC [G7C A25G] it is 0.06.
Turning to GGCAGACCUCAACACAGCGUGGCACAGUGGCUGUGGCUAGACUGCC [G7C A25C], the self-cleavage was 0.14.
For the variant GGCAGACCUCAACACAGCGUGGCAUAGUGGCUGUGGCUAGACUGCC [G7C A25U], the self-cleavage amounted to 0.16.
In the case of GGCAGAACUCAACACAGCGUGGCAAAGUGGCUAUGGCUAGACUGCC [G7A G33A], the self-cleavage is 0.29.
The figure for GGCAGAACUCAACACAGCGUGGCAAAGUGGCUCUGGCUAGACUGCC [G7A G33C] is 0.12; for GGCAGAACUCAACACAGCGUGGCAAAGUGGCUUUGGCUAGACUGCC [G7A G33U] it is 0.18.
The figure for GGCAGAACUCAACACAGCCUGGCAAAGUGGCUGUGGCUAGACUGCC [G7A G19C] is 0.09; for GGCAGAACUCAACACAGCAUGGCAAAGUGGCUGUGGCUAGACUGCC [G7A G19A] it is 0.26; for GGCAGAACUCAACACAGCUUGGCAAAGUGGCUGUGGCUAGACUGCC [G7A G19U] it is 0.11.
On to GGCAGAACUCAACACAGCGUGGCAAAGUGGCUGUGGCUAGACAGCC [G7A U43A], for which the self-cleavage is 0.15.
The same measure for GGCAGAACUCAACACAGCGUGGCAAAGUGGCUGUGGCUAGACCGCC [G7A U43C]: 0.25; for GGCAGAACUCAACACAGCGUGGCAAAGUGGCUGUGGCUAGACGGCC [G7A U43G]: 0.57; for GGCAGAACUCAAAACAGCGUGGCAAAGUGGCUGUGGCUAGACUGCC [G7A C13A]: 0.45.
With GGCAGAACUCAAGACAGCGUGGCAAAGUGGCUGUGGCUAGACUGCC [G7A C13G], the self-cleavage was found to be 0.26.
The same measure for GGCAGAACUCAAUACAGCGUGGCAAAGUGGCUGUGGCUAGACUGCC [G7A C13U]: 0.29.
The figure for GGCAGAACUCAACACAGCGUGGCAAAGUGGCUGUGGCAAGACUGCC [G7A U38A] is 0.09; for GGCAGAACUCAACACAGCGUGGCAAAGUGGCUGUGGCCAGACUGCC [G7A U38C] it is 0.1.
With GGCAGAACUCAACACAGCGUGGCAAAGUGGCUGUGGCGAGACUGCC [G7A U38G], the self-cleavage was found to be 0.02.
Turning to GGCAGAACGCAACACAGCGUGGCAAAGUGGCUGUGGCUAGACUGCC [G7A U9G], the self-cleavage amounted to 0.08.
The figure for GGCAGAACCCAACACAGCGUGGCAAAGUGGCUGUGGCUAGACUGCC [G7A U9C] is 0.04.
